From patent publication US8025878 (BIOARCTIC NEUROSCIENCE, dated 2011)
Each block holds one binder with its values, some of them ahead of it.

B1: mouse monoclonal antibody 158 (mAb158) (antibody, V domains shown)
VH: DVQLVESGGGLVQPGGSRKLSCAASGFTFSSFGMHWVRQAPEKGLEWVAYISSGSSTIYYGDTVKGRFTISRDNPKNTLFLQMTSLRSEDTAMYYCAREGGYYYGRSYYTMDYWGQGTSVTVSS
VL: DVLMTQTPLSLPVSLGDQASISCRSSQSIVHSNGNTYLEWYLQKPGQSPKLLIYKVSNRFSGVPDRFSGSGSGTDFTLKISRVEAEDLGIYYCFQGSHVPPTFGGGTKLEIK
notes: Mouse hybridoma IgG with a kappa light chain; In the sandwich ELISA the detecting copy was biotinylated; also called BA9
B3: Aβ1-16 (peptide, UniProt P05067 672-687, looked up)
peptide: DAEFRHDSGYEVHHQK
notes: domain: Aβ1-16; also called N-terminal part of the Aβ peptide; Aβ1-16 peptide

Legend:
[1] = target: T1, C-terminal fragment of Aβ (UniProt P05067 688-711); assay: competitive ELISA, plate coated with Aβ protofibrils
T1 construct: domain: C-terminal fragment of Aβ; also called Aβ fragment 17-40
T1 peptide (looked up): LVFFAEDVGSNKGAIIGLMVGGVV
Experimental: (§1) From competitive ELISA experiments, the antibody has a strong affinity for human Aβ42 wild-type protofibrils, but only very weak affinity for the N-terminal part of the Aβ peptide and Aβ monomers.
In FIG. 2B a competitive ELISA is shown. An ELISA plate was coated with human Aβ protofibrils. […] The incubation mix was added to the microtiter plate wells and free antibody was allowed to bind to immobilized protofibrils in the wells.

[2] = target: T2, islet amyloid polypeptide (IAPP) fibrils (UniProt P10997 34-70, not fully specified); assay: dot blot, fibrils on nitrocellulose membrane
T2 construct: Fibrils immobilized on a nitrocellulose membrane
T2 peptide (looked up): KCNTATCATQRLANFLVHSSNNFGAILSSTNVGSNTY
Description: (§2) Due to technical difficulties in generating protofibrils from other amyloidogenic proteins than Aβ, mAb158 was instead tested against different amyloid fibrils. The dot blot assay was used for these experiments since inhibition ELISA, where the antibody-antigen reactions take place in solution, is not suitable for insoluble antigens like fibrils. The dot blot assay is however not suitable for evaluation of antibody specificity for various Aβ forms, i.e. for measuring differences in selectivity for profibrils and fibrils. […] As positive controls the antibodies 6E10 (Aβ), pAb179 (medin), pAbA110 (IAPP) and mAb211 (α-synuclein) were used (FIG. 5B). Representative blots from repeated experiments (n=3).

medin fibrils = target: T3, medin fibrils (UniProt Q08431 268-317, not fully specified); assay: dot blot, fibrils on nitrocellulose membrane
T3 construct: Fibrils immobilized on a nitrocellulose membrane
T3 peptide (looked up): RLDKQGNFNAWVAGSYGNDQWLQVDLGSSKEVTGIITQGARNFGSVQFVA
Description: as §2

α-synuclein fibrils = α-synuclein fibrils (UniProt P37840 1-140); assay: dot blot, fibrils on nitrocellulose membrane
Description: as §2

Aβ1-16 = target: B3; assay: mAb158 sandwich ELISA with excess Aβ1-16 added to 50 pM Aβ protofibrils
Description: (§3) A large excess of monomeric Aβ, holoAPP and APP-fragments, naturally occurring in biological samples, could interfere with the Aβ protofibril analysis by occupying binding sites of the capture antibody coat, thus inhibiting the protofibrils from binding. This problem was investigated by adding an increasing excess of Aβ1-16 to a fixed concentration of Aβ protofibrils (50 pM, expressed as monomer units) and analyzing it with both the mAb158 ELISA and a 6E10-6E10 sandwich ELISA (FIG. 6C). […] Moreover, when synthetic Aβ protofibrils was added to mock HEK cell culture media or non-transgenic mouse brain homogenates, 90% of the signal was recovered (data not shown).

Aβ fibrils = target: T4, Aβ fibrils (UniProt P05067 672-713); assay: sandwich ELISA, mAb158 as capture and biotinylated mAb158 as detector
T4 construct: Insoluble fibrillar aggregate
T4 sequence (P05067 672-713): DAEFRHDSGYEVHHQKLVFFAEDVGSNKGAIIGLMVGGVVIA
Experimental: as §1
In FIG. 2A a sandwich ELISA is shown. […] Colour development was measured according to the procedure recommended by the manufacturer.

AβArc protofibrils = target: T5, AβArc protofibrils (human, UniProt P05067 672-713, limits assumed); assay: sandwich ELISA, mAb158 as both capturing and detecting antibody
T5 construct: Used for a standard curve in the mAb158 sandwich ELISA; also called Arctic Aβ protofibrils
T5 sequence (P05067 other isoform, or with tags, fused parts or gaps limits assumed): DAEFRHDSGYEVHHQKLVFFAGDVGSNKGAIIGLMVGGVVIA
Description: Establishment of an Aβ protofibril specific sandwich ELISA. To enable measurements of Aβ protofibrils in biological samples a sandwich ELISA with mAb158 as both capturing and detecting antibody was established. This assay measures Aβ protofibrils with a detection limit of 1 pM and with a linear range up to 250 pM (FIG. 6A, lines indicate linear regression of the standard curves). Due to uncertainties concerning the size of the Aβ protofibrils used in the standard curve, the concentration 1 pM is based on the molecular weight of one Aβ monomer (4514 g/mol), Though, since the molecular weight of a protofibril has been estimated to be at least 100 kDa, the limit of detection calculated as molar Aβ protofibrils could be as low as 50 fM. A standard curve of AβArc protofibrils gave a lower signal than wild type Aβ protofibrils, possibly due to differences in Aβ protofibril size (FIGS. 6A, 6B). Titrated synthetic LMW-Aβ (Low Molecular Weight Aβ). By the term "Low Molecular Weight Aβ", it is meant monomers, dimers and trimers of Aβ having a molecular weight of approximately 4-12 kDa. Aβ protofibrils and Aβ1-16 were used to validate the conformation specificity of the ELISA (FIG. 6B), where the hydrophilic Aβ1-16 peptide was used since it is not expected to aggregate. […]

[3] = target: T6, human Aβ42 wild-type protofibrils (human, UniProt P05067 672-713); assay: competitive ELISA with monomeric and protofibrillar Aβ
T6 construct: domain: Aβ42; Soluble oligomeric aggregate of many Aβ42 peptides; also called Aβ protofibrils; human wild-type Aβ protofibrils
T6 sequence (P05067 672-713 limits assumed): as the sequence (P05067 672-713) above

[4] = target: B1; assay: mAb158 sandwich ELISA, Aβ1-16 competing with 50 pM Aβ protofibrils
Description: as §3

6E10 = assay: 6E10-6E10 sandwich ELISA, Aβ1-16 competing with 50 pM Aβ protofibrils
6E10, sequence (VH, as listed by the source, chain 1 of 2): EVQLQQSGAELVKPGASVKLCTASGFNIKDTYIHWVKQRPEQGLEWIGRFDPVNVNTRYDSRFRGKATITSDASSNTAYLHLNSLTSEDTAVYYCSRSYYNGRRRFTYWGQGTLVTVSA
6E10, sequence (VL, as listed by the source, chain 2 of 2): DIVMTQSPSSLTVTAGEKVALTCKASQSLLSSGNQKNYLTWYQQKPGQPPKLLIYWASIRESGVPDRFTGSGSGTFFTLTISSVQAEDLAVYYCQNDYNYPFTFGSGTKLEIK
Description: as §3

Binder: B1
binding result [1]: no binding
binding result [2]: no binding
binding result (medin fibrils): no binding
binding result (α-synuclein fibrils): no binding
binding result (Aβ1-16): binds
fold less cross-reactivity than with Aβ protofibrils (Aβ fibrils): < 40 fold
binding result (AβArc protofibrils): binds

binding result [3]: binds
B2: humanized 158 antibody (BAN2401) (antibody, V domains shown)
VH: EVQLVESGGGLVQPGGSLRLSCSASGFTFSSFGMHWVRQAPGKGLEWVAYISSGSSTIYYGDTVKGRFTISRDNAKNSLFLQMSSLRAEDTAVYYCAREGGYYYGRSYYTMDYWGQGTTVTVS
VL: DVVMTQSPLSLPVTPGAPASISCRSSQSIVHSNGNTYLEWYLQKPGQSPKLLIYKVSNRFSGVPDRFSGSGSGTDFTLRISRVEAEDVGIYYCFQGSHVPPTFGPGTKLEIK

Binder: B3
molar excess of Aβ1-16 over Aβ protofibrils that did not disturb the signal [4]: 500000 fold
molar excess of Aβ1-16 over Aβ protofibrils enough to decrease the signal (6E10): 500 fold
